T1: O12
T1 chain: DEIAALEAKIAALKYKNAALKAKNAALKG

T2: O13
T2 chain: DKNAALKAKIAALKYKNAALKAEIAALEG

T3: O14
T3 chain: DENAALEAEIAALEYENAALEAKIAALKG

T4: O15
T4 chain: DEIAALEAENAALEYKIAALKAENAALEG

T5: O16
T5 chain: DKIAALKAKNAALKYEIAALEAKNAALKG

T6: O2
T6 chain: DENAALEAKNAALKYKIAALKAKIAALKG

T7: O3
T7 chain: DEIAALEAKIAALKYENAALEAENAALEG

T8: O4
T8 chain: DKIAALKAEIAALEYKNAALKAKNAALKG

T9: O5
T9 chain: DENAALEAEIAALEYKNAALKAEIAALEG

T10: O6
T10 chain: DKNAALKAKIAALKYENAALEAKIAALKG

T11: O7
T11 chain: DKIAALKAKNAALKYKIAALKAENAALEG

T12: O8
T12 chain: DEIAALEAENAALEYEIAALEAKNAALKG

T13: O9
T13 chain: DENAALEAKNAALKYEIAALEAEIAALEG

T14: 4H967-bH
T14 chain: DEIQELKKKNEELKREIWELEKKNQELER


Experiments:
Experiment in all cases: two-hybrid library CCNG1;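 also: natural log of median RNA to DNA barcode read ratio; higher means stronger binding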
O12 = biological target: T1, O12
O13 = biological target: T2, O13
O14 = biological target: T3, O14
O15 = biological target: T4, O15
O16 = biological target: T5, O16
O2 = biological target: T6, O2
O3 = biological target: T7, O3
O4 = biological target: T8, O4
O5 = biological target: T9, O5
O6 = biological target: T10, O6
O7 = biological target: T11, O7
O8 = biological target: T12, O8
O9 = biological target: T13, O9
4H967-bH = biological target: T14, 4H967-bH

Row | Binder | interaction score (O12) | interaction score (O13) | interaction score (O14) | interaction score (O15) | interaction score (O16) | interaction score (O2) | interaction score (O3) | interaction score (O4) | interaction score (O5) | interaction score (O6) | interaction score (O7) | interaction score (O8) | interaction score (O9) | interaction score (4H967-bH)
1 | DEIAALEAKIAALKYKNAALKAKNAALKG [O12] | -2.08 | -2.04 | -1.45 | -1.36 | -2.57 | -2.46 | 0.318 | -1.08 | -2.03 | -2.27 | -2.15 | -1.51 | -1.67 | 
2 | DEIQELKKKNEELKREIWELEKKNQELER [4H967-bH] | -1.53 |  |  |  |  |  |  |  |  |  |  |  |  | -0.406
